This note sets out measurements from patent US20080118529.

The target of data set [1] is T1, laminin α1-chain (2097-2108) amyloid core peptide.
T1 chain: AASIKVAVSADR

Data set [2] concerns the target T2, amyloid fibrin peptide FP13 K157G, P02671.
T2 chain: KVQHIQLLQGNVR

For data set [3], the target named is T3, amyloid fragment of transthyretin.
T3 chain: YTIAALLSPYS

Data set [4] has as its target T4, non-amyloid fragment FP10 of human fibrin α-chain (148-157).
T4 chain: KRLEVDIDIK

In data set [5] the target is albumin (ICN, 160069), P02769.
Sequence of albumin (ICN, 160069), P02769 (P02769 25-607): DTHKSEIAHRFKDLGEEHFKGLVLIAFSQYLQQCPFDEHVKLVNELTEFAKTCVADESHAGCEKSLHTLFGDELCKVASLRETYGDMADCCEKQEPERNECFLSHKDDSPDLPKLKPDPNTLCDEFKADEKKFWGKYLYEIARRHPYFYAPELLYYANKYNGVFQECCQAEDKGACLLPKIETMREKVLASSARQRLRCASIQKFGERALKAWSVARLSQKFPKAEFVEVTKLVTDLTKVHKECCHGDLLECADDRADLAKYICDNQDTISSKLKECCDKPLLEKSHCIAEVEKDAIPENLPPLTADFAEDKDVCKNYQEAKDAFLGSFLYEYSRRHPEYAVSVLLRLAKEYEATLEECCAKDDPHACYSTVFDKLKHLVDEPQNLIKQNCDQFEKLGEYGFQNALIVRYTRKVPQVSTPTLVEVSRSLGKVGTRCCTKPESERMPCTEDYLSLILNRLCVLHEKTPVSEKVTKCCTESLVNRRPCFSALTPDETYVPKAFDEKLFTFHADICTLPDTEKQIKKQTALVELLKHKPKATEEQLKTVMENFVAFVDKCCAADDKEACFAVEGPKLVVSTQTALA
Data set [6] addresses recombinant human collagen XVIII fragment endostatin (Entremed, Inc), P39060.
Data set [7] deals with T5, mouse non-amyloidogenic IAPP (20-29) core.
T5 chain: SNNLGPVLPP

In data set [8] the target is Glycated haemoglobin (Hb-AGE).
In data set [9] the target is T6, recombinant human β2-glycoprotein I (made in insect cells), P02749.
T6 chain: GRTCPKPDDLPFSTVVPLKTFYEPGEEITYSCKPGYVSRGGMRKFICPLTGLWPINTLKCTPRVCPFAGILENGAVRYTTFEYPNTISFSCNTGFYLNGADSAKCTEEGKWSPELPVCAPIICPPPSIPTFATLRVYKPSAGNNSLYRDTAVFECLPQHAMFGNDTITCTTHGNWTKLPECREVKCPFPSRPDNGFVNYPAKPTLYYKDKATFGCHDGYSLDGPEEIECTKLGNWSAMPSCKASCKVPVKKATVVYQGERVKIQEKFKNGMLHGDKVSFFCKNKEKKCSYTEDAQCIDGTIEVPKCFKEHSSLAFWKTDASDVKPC

The target of data set [10] is T7, β2-glycoprotein I purified from fresh human plasma, P02749.
T7 chain: T6 chain

Data set [11] deals with T8, human β2-Glycoprotein I pre-incubated with cardiolipin vesicles (CL-β2gpi), P02749.
T8 chain: T6 chain

The target in data set [12] is native human glucagon (freshly dissolved), P01275.
Sequence of native human glucagon (freshly dissolved), P01275 (P01275 53-81): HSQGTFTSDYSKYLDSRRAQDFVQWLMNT
For data set [13], the target named is Native murine serum albumin (nMSA, #126674, Calbiochem), P07724.
Sequence of Native murine serum albumin (nMSA, #126674, Calbiochem), P07724 (P07724 25-608): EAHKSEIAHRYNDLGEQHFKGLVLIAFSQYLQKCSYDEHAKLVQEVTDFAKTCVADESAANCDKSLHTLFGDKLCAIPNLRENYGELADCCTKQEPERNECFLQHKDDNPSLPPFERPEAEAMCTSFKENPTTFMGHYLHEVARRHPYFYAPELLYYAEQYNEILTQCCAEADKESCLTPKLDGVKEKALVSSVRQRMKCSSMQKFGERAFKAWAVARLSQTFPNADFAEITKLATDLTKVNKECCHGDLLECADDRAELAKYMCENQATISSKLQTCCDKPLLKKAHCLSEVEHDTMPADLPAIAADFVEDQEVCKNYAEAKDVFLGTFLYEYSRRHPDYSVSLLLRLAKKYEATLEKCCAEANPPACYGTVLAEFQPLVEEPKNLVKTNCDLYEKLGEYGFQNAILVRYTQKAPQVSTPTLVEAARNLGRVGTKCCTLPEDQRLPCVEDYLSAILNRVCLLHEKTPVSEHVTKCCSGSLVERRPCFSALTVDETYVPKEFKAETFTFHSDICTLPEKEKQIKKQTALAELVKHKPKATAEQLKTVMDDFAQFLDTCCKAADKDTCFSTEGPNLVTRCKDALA
Data set [14] deals with T9, Amyloid-like misfolded OVA (DOVA), obtained by cyclic thermal misfolding, P01012.
T9 chain: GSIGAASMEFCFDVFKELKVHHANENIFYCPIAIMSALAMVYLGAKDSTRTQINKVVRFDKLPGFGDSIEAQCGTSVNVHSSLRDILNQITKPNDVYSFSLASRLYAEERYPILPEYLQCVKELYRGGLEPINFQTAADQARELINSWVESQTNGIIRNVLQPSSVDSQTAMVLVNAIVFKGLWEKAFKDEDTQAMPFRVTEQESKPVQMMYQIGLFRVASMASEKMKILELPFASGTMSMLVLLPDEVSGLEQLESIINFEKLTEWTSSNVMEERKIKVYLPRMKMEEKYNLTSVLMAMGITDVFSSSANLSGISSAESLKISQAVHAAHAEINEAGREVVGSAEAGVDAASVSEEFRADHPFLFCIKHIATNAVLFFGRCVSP

Data set [15] concerns the target T10, Ovalbumin (chicken egg albumin, OVA, Sigma A5503), carefully dissolved, P01012.
T10 chain: T9 chain

The target of data set [16] is heat/acid-denatured human glucagon (Glucagen, Novo Nordisk), P01275.

Sequence of recombinant human collagen XVIII fragment endostatin (Entremed, Inc), P39060 (P39060 whole entry, looked up, the tested form may be a part): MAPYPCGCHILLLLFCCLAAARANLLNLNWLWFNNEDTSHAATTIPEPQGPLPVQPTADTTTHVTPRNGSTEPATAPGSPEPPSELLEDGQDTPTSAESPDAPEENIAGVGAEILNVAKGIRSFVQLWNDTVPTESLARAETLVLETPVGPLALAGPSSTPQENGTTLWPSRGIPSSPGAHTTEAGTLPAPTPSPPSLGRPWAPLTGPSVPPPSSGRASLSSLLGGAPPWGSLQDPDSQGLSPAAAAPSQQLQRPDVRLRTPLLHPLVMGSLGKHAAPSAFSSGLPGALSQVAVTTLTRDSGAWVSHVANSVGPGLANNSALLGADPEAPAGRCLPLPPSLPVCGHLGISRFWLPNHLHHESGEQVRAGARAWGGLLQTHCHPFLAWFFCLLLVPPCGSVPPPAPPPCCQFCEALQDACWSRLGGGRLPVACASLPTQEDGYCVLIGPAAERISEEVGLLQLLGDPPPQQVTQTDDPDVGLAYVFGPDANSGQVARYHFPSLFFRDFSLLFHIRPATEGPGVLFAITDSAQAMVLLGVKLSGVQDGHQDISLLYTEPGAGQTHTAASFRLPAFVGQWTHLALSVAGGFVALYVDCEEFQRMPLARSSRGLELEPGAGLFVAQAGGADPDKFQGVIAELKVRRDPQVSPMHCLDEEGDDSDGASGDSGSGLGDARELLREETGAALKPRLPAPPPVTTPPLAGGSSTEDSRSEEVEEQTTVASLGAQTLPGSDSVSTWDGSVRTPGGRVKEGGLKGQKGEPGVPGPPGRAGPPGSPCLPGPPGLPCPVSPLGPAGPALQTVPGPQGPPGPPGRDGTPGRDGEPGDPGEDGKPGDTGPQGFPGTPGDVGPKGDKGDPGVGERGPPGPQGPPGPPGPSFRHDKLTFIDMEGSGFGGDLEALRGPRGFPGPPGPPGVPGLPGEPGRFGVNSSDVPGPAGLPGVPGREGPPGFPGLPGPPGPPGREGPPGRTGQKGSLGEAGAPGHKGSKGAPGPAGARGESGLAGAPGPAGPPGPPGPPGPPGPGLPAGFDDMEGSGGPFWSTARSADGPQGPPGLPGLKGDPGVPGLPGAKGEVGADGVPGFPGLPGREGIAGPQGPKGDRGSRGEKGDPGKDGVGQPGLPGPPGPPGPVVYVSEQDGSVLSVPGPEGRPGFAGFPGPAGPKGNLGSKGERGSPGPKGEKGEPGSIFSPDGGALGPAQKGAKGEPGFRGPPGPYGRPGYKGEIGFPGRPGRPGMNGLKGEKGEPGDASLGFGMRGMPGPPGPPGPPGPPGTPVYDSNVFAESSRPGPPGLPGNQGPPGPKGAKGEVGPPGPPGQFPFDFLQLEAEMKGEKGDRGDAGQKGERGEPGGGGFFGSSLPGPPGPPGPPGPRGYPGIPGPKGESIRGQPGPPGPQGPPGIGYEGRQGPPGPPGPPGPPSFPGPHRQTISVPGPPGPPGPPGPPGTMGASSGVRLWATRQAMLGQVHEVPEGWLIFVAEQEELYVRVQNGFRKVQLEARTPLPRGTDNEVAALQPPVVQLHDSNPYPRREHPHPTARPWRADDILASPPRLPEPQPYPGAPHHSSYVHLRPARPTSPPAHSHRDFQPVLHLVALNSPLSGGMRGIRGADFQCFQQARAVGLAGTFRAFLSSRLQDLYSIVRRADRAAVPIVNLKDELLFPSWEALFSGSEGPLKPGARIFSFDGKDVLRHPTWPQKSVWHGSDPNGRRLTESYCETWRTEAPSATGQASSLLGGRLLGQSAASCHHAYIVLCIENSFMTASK

B1: human factor XII from plasma (Calbiochem, #233490) (protein)
chain: IPPWEAPKEHKYKAEEHTVVLTVTGEPCHFPFQYHRQLYHKCTHKGRPGPQPWCATTPNFDQDQRWGYCLEPKKVKDHCSKHSPCQKGGTCVNMPSGPHCLCPQHLTGNHCQKEKCFEPQLLRFFHKNEIWYRTEQAAVARCQCKGPDAHCQRLASQACRTNPCLHGGRCLEVEGHRLCHCPVGYTGAFCDVDTKASCYDGRGLSYRGLARTTLSGAPCQPWASEATYRNVTAEQARNWGLGGHAFCRNPDNDIRPWCFVLNRDRLSWEYCDLAQCQTPTQAAPPTPVSPRLHVPLMPAQPAPPKPQPTTRTPPQSQTPGALPAKREQPPSLTRNGPLSCGQRLRKSLSSMTRVVGGLVALRGAHPYIAALYWGHSFCAGSLIAPCWVLTAAHCLQDRPAPEDLTVVLGQERRNHSCEPCQTLAVRSYRLHEAFSPVSYQHDLALLRLQEDADGSCALLSPYVQPVCLPSGAARPSETTLCQVAGWGHQFEGAEEYASFLQEAQVPFLSLERCSAPDVHGSSILPGMLCAGFLEGGTDACQGDSGGPLVCEDQAAERRLTLQGIISWGSGCGDRNKPGVYTDVAYYLAWIREHTVS
In the case of B1, the “activation of factor XII, detected by the conversion of Chromozym-PK” value in data set [1] was “cross-β structure conformation rich peptides laminin (LAM12) and transthyretin (TTR11) stimulate factor XII activation, to a similar extent as kaolin”; in data set [3] it was “cross-β structure conformation rich peptides laminin (LAM12) and transthyretin (TTR11) stimulate factor XII activation, to a similar extent as kaolin”; in [4] it was “non-amyloid controls fibrin fragment FP10 and non-amyloid murine islet amyloid polypeptide mIAPP do not activate factor XII”; in data set [7], “non-amyloid controls fibrin fragment FP10 and non-amyloid murine islet amyloid polypeptide mIAPP do not activate factor XII”. Also, the “auto-activation of purified factor XII, substrate S-2222” value in [2] was “All three amyloid-like aggregates are able to induce factor XII auto-activation. FP13 K157G and Hb-AGE have a potency to induce auto-activation that is similar to the established surface activator DXS500k”; in data set [8] it was “All three amyloid-like aggregates are able to induce factor XII auto-activation. FP13 K157G and Hb-AGE have a potency to induce auto-activation that is similar to the established surface activator DXS500k”. Besides, the “factor XII and subsequent prekallikrein activity (Chromozym-PK)” value in data set [5] was “Neither albumin or endostatin alone, nor kaolin or DXS500k alone are efficient activators of factor XII, whereas combinations of adjuvant and protein cofactor results in factor XII and subsequent prekallikrein activity”; in [6], “Neither albumin or endostatin alone, nor kaolin or DXS500k alone are efficient activators of factor XII, whereas combinations of adjuvant and protein cofactor results in factor XII and subsequent prekallikrein activity”.

B2: Tissue-type plasminogen activator (tPA, Actilyse, Boehringer-Ingelheim) (protein)
chain: SYQVICRDEKTQMIYQQHQSWLRPVLRSNRVEYCWCNSGRAQCHSVPVKSCSEPRCFNGGTCQQALYFSDFVCQCPEGFAGKCCEIDTRATCYEDQGISYRGTWSTAESGAECTNWNSSALAQKPYSGRRPDAIRLGLGNHNYCRNPDRDSKPWCYVFKAGKYSSEFCSTPACSEGNSDCYFGNGSAYRGTHSLTESGASCLPWNSMILIGKVYTAQNPSAQALGLGKHNYCRNPDGDAKPWCHVLKNRRLTWEYCDVPSCSTCGLRQYSQPQFRIKGGLFADIASHPWQAAIFAKHRRSPGERFLCGGILISSCWILSAAHCFQERFPPHHLTVILGRTYRVVPGEEEQKFEVEKYIVHKEFDDDTYDNDIALLQLKSDSSRCAQESSVVRTVCLPPADLQLPDWTECELSGYGKHEALSPFYSERLKEAHVRLYPSSRCTSQHLLNRTVTDNMLCAGDTRSGGPQANLHDACQGDSGGPLVCLNDGRMTLVGIISWGLGCGQKDVPGVYTKVTNYLDWIRDNMRP
On to B2, for which the “tPA-mediated conversion of Plg to plasmin (substrate S-2251)” value in [9] is listed as “Recombinant β2GPI, but not β2GPI purified from fresh plasma stimulate tPA-mediated conversion of Plg to plasmin”; in data set [10], “Recombinant β2GPI, but not β2GPI purified from fresh plasma stimulate tPA-mediated conversion of Plg to plasmin”. For the same protein, the “chromogenic tPA/plasminogen activation assay with a plasmin substrate” value in [11] is on record as “Exposure of human β2gpi to cardiolipin renders the mixture with tPA/plasminogen activating properties”. For the same protein, the Plg-activation assay entry is given as “at high glucagon concentration, also native glucagon has some tPA activating potential” in [12]; “also native albumin enhanced ThT fluorescence to some extent, but this was not reflected by stimulation of tPA activation” in data set [13]; “In this way, a potent activator of tPA was obtained” in data set [16]. Besides, the tPA/plasminogen activation assay result was “After cyclic thermal misfolding, however, signals representative for crossbeta structure are far more pronounced with denatured OVA” in data set [14]; “OVA displays characteristics that are a hallmark for the presence of at least a fraction of the molecules with crossbeta structure, as shown by ... the enhanced activation of tPA and plasminogen” in data set [15].
